{"source": "paper PMC6801647", "about": "“Crystal Structure of Kluyveromyces lactis Glucokinase (KlGlk1)” (International Journal of Molecular Sciences, 2019)", "molecules": {"B1": {"name": "KlGlk1 (Kluyveromyces lactis NRRL Y-1140) (protein)", "chain": "SDPKLTKAVDSICDQFIVTKSKISQLTEYFIDCMEKGLEPCESDISQNKGLPMIPTFVTDKPSGQEHGVTMLAADLGGTNFRVCSVELLGNHEFKIEQEKSKIPTFFFQDDHHVTSKDLFQHMALITHQFLTKHHKDVIQDYKWKMGFTFSYPVDQTSLSSGKLIRWTKGFKIGDTVGQDVVQLFQQELNDIGLSNVHVVALTNDTTGTLLARCYASSDAARAINEPVIGCIFGTGTNGCYMEKLENIHKLDPASREELLSQGKTHMCINTEWGSFDNELNHLPTTSYDIKIDQQFSTNPGFHLFEKRVSGLYLGEILRNILLDLEKQELFDLKESVLKNNPFILTTETLSHIEIDTVENDLQDTRDALLKAADLETTFEERVLIQKLVRAISRRAAFLAAVPIAAILIKTNALNQSYHCQVEVGCDGSVVEHYPGFRSMMRHALALSPIGPEGERDVHLRISKDGSGVGAALCALHANY", "notes": "codon-optimized synthetic gene in pET24d, E. coli BL21 (DE3); N-terminal His-tag removed with TEV protease; dimer in solution (100 kDa apparent); crystal model residues 2-481"}}, "key": {"[1]": {"biological_target": "Kluyveromyces lactis glucokinase (KlGlk1) (Kluyveromyces lactis) (UniProt Q6CUZ3)", "test": "SEC-MALS; size-exclusion chromatography (Superdex 200 Increase 10/300 GL) coupled to right-angle/low-angle light scattering (RALS/LALS) and refractive index, OMNISEC REVEAL; 50 mM Tris pH 7.8, 200 mM NaCl, 5 mM beta-ME"}, "[2]": {"substrate": "Nc1ncnc2c1ncn2[C@@H]1O[C@H](COP(=O)(O)OP(=O)(O)OP(=O)(O)O)[C@@H](O)[C@H]1O", "test": "G6PD-coupled assay, fit over ATP range preceding substrate inhibition", "format": "biochemical, Kluyveromyces lactis", "conditions": "0.5 mM glucose, 5 mM MgCl2, 50 mM KCl, 250 mM sucrose, 20 mM Tris-HCl pH 7.4, 37 °C, Hill coefficient 1.97 at low ATP, substrate inhibition from 0.25 mM ATP"}}, "data": [{"molecule": "Kluyveromyces lactis glucokinase (KlGlk1) (from UniProt Q6CUZ3 49-481) (enzyme)", "values": [{"measurement": "stoichiometry N", "setting": "[1]", "result": 2}]}, {"molecule": "B1", "values": [{"measurement": "Km", "setting": "[2]", "result": 150, "unit": "µM"}, {"measurement": "kcat", "setting": "[2]", "result": 400, "unit": "s⁻¹"}]}]}
